The source of these data is patent US8440190.

For the test, the target named is immobilized CD52 (human) (UniProt P31358). The test is described as follows: Fab fragments assayed for binding to immobilized CD52.
Substance “humanized Campath-1 Fab with (VH) CDR1 replaced by that of NEW” registered a fold reduction of binding against the humanized Campath-1 Fab of 3 fold. Consider “humanized Campath-1 Fab with (VL) CDR3 replaced by that of REI”, for which the fold reduction of binding against the humanized Campath-1 Fab came out at 3 fold. In the case of “humanized Campath-1 Fab with (VH) CDR3 replaced by that of NEW” it was 8 fold.
